Results taken from US20070020327A1.

target: HLA-A*0201 (human); assay: competition with 125I-labelled standard peptide for purified HLA, gel filtration; conditions: not given

binding affinity ratio (IC50 of standard peptide / IC50 of test peptide)	binding affinity ratio (IC50 of the standard peptide / IC50 of the test peptide)	Binder
0.0002	–	PLYHSVYET (modifications not checked) [PSM 550 …]
0.002	–	PLVCNGVLQGI (modifications not checked) [PSA 212 …]
0.002	–	PLVCNGVLQGI (modifications not checked) [Kallikrein 216 …]
0.0008	–	PLMYSLVHNL (modifications not checked) [PSM 468 …]
0.0001	–	PLERFAELV (modifications not checked) [PAP 352 …]
0.0006	–	PLSEDQLLYL (modifications not checked) [PAP 147 …]
–	0.0002	YIRKRYRKFL (modifications not checked) [PAP 84 peptide …]
0.0001	–	PLVCNGVL (modifications not checked) [PSA 212 PLVGNGVL]
0.0002	–	PAELTDAVKV (modifications not checked) [PSA 125 …]
0.0002	–	PIDTFPTDPI (modifications not checked) [PAP 49 …]
0.0001	–	PLVCNGVL (modifications not checked) [Kallikrein 216 PLVGNGVL]
0.0002	–	PLYDMSLL (modifications not checked) [PSA 95 PLYDMSLL]
0.0001	–	PLILSRIV (modifications not checked) [PSA 15 PLILSRIV]
0.0001	–	NVIGTLRGAV (modifications not checked) [PSM 357 …]
–	0.0002	YARTEDFFKL (modifications not checked) [PSM 179 peptide …]
0.0001	–	PIGYYDAQKL (modifications not checked) [PSM 296 …]
0.0002	–	PIPVHTVPL (modifications not checked) [PAP 140 …]
0.0005	–	PMFKYHLTVA (modifications not checked) [PSM 568 …]
0.0001	–	PADYFAPGV (modifications not checked) [PSM 231 …]

same assay, conditions: remark: other sources report otherwise

IC50 [nM]	Binder
50	DLMLLRLSEPV (modifications not checked) [peptide 1419.13 (PSA.116.V11 / HuK2.120.V11)]

same assay, conditions: remark: other sources report otherwise; scale: ratio

binding affinity ratio	Binder
0.001	KVTEFMLCAGL (modifications not checked) [… (Kallikrein, position 191, 11 amino acids)]

same assay, conditions: scale: ratio

binding affinity ratio	Binder
0.0001	LLEKMGGSA (modifications not checked) [… (PSM, position 305, 9 amino acids)]
0.0002	LAGAKGVIL (modifications not checked) [… (PSM, position 219, 9 amino acids)]
0.0001	SVELAHYDV (modifications not checked) [PSM peptide … (position 107, 9 amino acids)]
0.0001	SVTWIGAA (modifications not checked) [PSA peptide SVTWIGAA (position 7, 8 amino acids)]
0.0002	LAKELKFVTL (modifications not checked) [… (PAP, position 31, 10 amino acids)]
0.0002	SVELAHYDVL (modifications not checked) [PSM peptide … (position 107, 10 amino acids)]
0.0006	LLHETDSAVA (modifications not checked) [… (PSM, position 4, 10 amino acids)]
0.0001	SVILLGRHSL (modifications not checked) [PSA peptide … (position 67, 10 amino acids)]
0.0001	SMKHPQEMKT (modifications not checked) [PSM peptide … (position 615, 10 amino acids)]
0.0002	SLVHNLTKEL (modifications not checked) [PSM peptide … (position 472, 10 amino acids)]
0.0001	KVVHYRKWI (modifications not checked) [… (Kallikrein, position 245, 9 amino acids)]
0.0001	LLRLSEPA (modifications not checked) [LLRLSEPA (PSA, position 119, 8 amino acids)]
0.0001	LLRLSEPA (modifications not checked) [LLRLSEPA (Kallikrein, position 123, 8 amino acids)]
0.0001	KVVHYRKWI (modifications not checked) [… (PSA, position 241, 9 amino acids)]
0.0002	LARAASLSL (modifications not checked) [… (PAP, position 8, 9 amino acids)]
0.02	SLSLGFLFL (modifications not checked) [PAP peptide … (position 13, 9 amino acids)]
0.002	SLLKNRFL (modifications not checked) [PSA peptide SLLKNRFL (position 100, 8 amino acids)]
0.0001	LLRLSEPAEL (modifications not checked) [… (PSA, position 119, 10 amino acids)]
0.001	SLFSAVKNFT (modifications not checked) [PSM peptide … (position 631, 10 amino acids)]
0.0001	STQKVKMHI (modifications not checked) [PSM peptide … (position 338, 9 amino acids)]
0.0001	LAGTEQNFQL (modifications not checked) [… (PSM, position 83, 10 amino acids)]
0.002	KVTKFMLCA (modifications not checked) [… (PSA, position 187, 9 amino acids)]
0.0001	SIINEDGNEI (modifications not checked) [PSM peptide … (position 129, 10 amino acids)]

target: HLA-A*0201 (human); assay: competition with 125I-labelled standard peptide 941.01 for purified HLA, gel filtration; conditions: remark: other sources report otherwise; scale: ratio

binding affinity ratio	Binder
0.0008	VTEFMLCAGL (modifications not checked) [… (Kallikrein, position 192, 10 amino acids)]

same assay, conditions: scale: ratio

binding affinity ratio	Binder
0.0001	VVLRKYADKI (modifications not checked) [… (PSM, position 602, 10 amino acids)]
0.0002	VVFLTLSV (modifications not checked) [VVFLTLSV (PSA, position 1, 8 amino acids)]
0.011	VTWIGAAPL (modifications not checked) [… (PSA, position 8, 9 amino acids)]
0.0008	VVFLTLSVT (modifications not checked) [… (PSA, position 1, 9 amino acids)]
0.0019	VTWIGAAPLI (modifications not checked) [… (PSA, position 8, 10 amino acids)]
0.0001	WAEENSRLL (modifications not checked) [… (PSM, position 434, 9 amino acids)]
